Measured values: doi:10.1101/2021.07.29.454387 (bioRxiv, 2021)

Columns and labels:
Test in all cases: ITC
[1] = target: T1, PDZ domain of human PDLIM4 (residues 1-84) (human, UniProt P50479 1-84)
T1 sequence: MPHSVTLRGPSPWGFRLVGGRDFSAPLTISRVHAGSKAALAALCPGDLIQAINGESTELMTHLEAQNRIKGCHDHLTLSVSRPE

[2] = target: T2, PDZ domain of human PDLIM2 (residues 1-84) (human, UniProt Q96JY6 1-84)
T2 sequence: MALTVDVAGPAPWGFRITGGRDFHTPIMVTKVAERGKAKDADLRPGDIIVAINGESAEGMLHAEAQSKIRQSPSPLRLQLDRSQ

[3] = target: PDLIM7 PDZ domain (1-84) Q67A (human, UniProt Q9NR12 1-84, Q67A)
Chain of PDLIM7 PDZ domain (1-84) Q67A (Q9NR12 1-84 Q67A): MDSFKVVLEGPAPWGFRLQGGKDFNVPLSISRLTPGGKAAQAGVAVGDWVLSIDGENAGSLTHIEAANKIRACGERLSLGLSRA

[4] = target: T3, PDZ domain of human PDLIM1 (residues 1-84) (human, UniProt O00151 1-84)
T3 sequence: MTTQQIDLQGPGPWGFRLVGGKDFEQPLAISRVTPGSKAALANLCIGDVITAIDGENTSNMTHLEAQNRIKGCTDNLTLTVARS

[5] = target: PDZ domain of human PDLIM7 (residues 1-84) (human, UniProt Q9NR12 1-84)
Chain of PDZ domain of human PDLIM7 (residues 1-84) (Q9NR12 1-84): as the sequence (Q9NR12 1-84 Q67A) above, with A67Q counted along it

[6] = target: PDLIM7 PDZ domain (1-84) W14Y (human, UniProt Q9NR12 1-84, W14Y)
Chain of PDLIM7 PDZ domain (1-84) W14Y (Q9NR12 1-84 W14Y): as the sequence (Q9NR12 1-84 Q67A) above, with W14Y, A67Q counted along it

[7] = target: PDLIM7 PDZ domain (1-84) P11E (human, UniProt Q9NR12 1-84, P11E)
Chain of PDLIM7 PDZ domain (1-84) P11E (Q9NR12 1-84 P11E): as the sequence (Q9NR12 1-84 Q67A) above, with P11E, A67Q counted along it

[8] = target: PDLIM7 PDZ domain (1-84) H63A (human, UniProt Q9NR12 1-84, H63A)
Chain of PDLIM7 PDZ domain (1-84) H63A (Q9NR12 1-84 H63A): as the sequence (Q9NR12 1-84 Q67A) above, with H63A, A67Q counted along it

[9] = target: T4, PDZ domain of human PDLIM5 (residues 1-84) (human, UniProt Q96HC4 1-84)
T4 sequence: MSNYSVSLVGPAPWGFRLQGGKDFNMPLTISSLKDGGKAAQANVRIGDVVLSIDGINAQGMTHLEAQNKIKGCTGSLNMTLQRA

[10] = target: T5, PDZ domain of human PDLIM3 (residues 1-84) (human, UniProt Q53GG5 1-84)
T5 sequence: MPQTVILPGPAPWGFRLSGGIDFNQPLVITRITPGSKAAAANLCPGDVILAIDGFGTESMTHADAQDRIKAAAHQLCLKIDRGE

Measured: binding result

B1: SNX17 C-terminal peptide (457-470) used for ITC (peptide)
peptide: HGNFAFEGIGDEDL
binds: all assays above

B2: SNX17 C-terminal peptide E468R (peptide)
peptide: HGNFAFEGIGDRDL
binds: [5]
